The source of these data is article PMC7855791.

The target of data set [1] is T1, Spo11 wild type (core complex subunit);Ski8;Rec102;Rec104 (Saccharomyces cerevisiae;Saccharomyces …, UniProt P23179;Q02793;Q02721;P33323 1-398;1-397;1-264;1-182, |||). As to the kind of experiment: FeBABE footprinting.
For data set [2], the target named is T1, Spo11 wild type (core complex …). As to the kind of experiment: FeBABE footprinting. This is another data set of the same source.

Like-named read-outs stand apart in the source and are kept apart here.

T1 sequence (P23179 whole entry, chain 1 of 4): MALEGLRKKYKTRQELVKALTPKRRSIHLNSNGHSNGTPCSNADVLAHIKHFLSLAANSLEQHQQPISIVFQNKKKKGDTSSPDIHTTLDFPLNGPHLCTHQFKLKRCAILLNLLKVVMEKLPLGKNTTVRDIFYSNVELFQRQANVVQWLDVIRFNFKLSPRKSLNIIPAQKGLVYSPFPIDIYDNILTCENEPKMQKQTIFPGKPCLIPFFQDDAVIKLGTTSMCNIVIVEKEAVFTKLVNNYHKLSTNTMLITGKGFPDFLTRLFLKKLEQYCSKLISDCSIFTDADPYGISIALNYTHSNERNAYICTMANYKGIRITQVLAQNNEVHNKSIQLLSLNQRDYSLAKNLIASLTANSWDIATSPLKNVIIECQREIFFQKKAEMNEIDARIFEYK
T1 sequence (Q02793 whole entry, chain 2 of 4): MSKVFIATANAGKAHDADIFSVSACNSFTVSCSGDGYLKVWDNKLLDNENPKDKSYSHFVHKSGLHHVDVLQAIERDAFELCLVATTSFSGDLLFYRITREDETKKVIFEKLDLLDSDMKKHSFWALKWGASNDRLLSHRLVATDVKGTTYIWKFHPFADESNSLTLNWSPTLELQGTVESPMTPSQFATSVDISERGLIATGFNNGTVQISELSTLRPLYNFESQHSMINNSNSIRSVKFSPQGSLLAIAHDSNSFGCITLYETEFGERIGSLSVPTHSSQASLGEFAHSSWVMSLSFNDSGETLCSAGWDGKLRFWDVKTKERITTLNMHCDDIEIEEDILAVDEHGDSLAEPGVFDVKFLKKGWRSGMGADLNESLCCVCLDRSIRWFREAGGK
T1 sequence (Q02721 whole entry, chain 3 of 4): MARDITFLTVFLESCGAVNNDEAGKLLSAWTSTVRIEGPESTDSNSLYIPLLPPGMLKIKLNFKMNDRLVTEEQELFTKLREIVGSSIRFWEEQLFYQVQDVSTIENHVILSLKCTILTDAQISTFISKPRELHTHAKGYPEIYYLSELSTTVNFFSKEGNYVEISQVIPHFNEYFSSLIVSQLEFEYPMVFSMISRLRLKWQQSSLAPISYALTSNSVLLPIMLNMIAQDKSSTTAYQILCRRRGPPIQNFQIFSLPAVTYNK
T1 sequence (P33323 whole entry, chain 4 of 4): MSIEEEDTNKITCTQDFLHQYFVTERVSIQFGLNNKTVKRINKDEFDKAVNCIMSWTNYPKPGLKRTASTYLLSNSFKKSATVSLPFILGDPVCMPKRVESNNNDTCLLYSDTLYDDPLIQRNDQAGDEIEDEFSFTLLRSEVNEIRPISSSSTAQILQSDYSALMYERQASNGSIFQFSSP

B1: 5'-TA-proximal FeBABE probe (cb958/cb961) (dsDNA)
DNA 1: TAGCAATGTAATCGTCTATGACGTT
DNA 2: AACGTCATAGACGATTACATTGC
modifications: 5 phosphorothioates with FeBABE on strand 2 (after nt 13,15,17,19,21)
Turning to B1, the binding result in data set [1] is “binds”.

B2: 5'-TA-distal FeBABE probe (cb958/cb960) (dsDNA)
DNA 1: TAGCAATGTAATCGTCTATGACGTT
DNA 2: AACGTCATAGACGATTACATTGC
modifications: 5 phosphorothioates with FeBABE on strand 2 (after nt 2,4,6,8,10)
For B2, the binding result in data set [2] is on record as “binds”.
